Results published in publication PMC10470544, “Pathogen-specific structural features of Candida albicans Ras1 activation complex: uncovering new antifungal drug targets” (mBio, 2023).

Legend:
[1] = biological target: T1, catalytic region of CaCdc25 (REM-CAT tandem) (Candida albicans, UniProt P43069); assay: ITC; recombinant CaCdc25 (REM-CAT tandem) titrated with CaRas1-FL or G-domain, MicroCal VP-ITC, single binding site model; settings: both partners purified
T1 construct: PDB 7NZZ holds this construct; also called REM-CAT tandem of CaCdc25; catalytic region of the CaRas1 guanine nucleotide exchange factor CaCdc25
T1 sequence: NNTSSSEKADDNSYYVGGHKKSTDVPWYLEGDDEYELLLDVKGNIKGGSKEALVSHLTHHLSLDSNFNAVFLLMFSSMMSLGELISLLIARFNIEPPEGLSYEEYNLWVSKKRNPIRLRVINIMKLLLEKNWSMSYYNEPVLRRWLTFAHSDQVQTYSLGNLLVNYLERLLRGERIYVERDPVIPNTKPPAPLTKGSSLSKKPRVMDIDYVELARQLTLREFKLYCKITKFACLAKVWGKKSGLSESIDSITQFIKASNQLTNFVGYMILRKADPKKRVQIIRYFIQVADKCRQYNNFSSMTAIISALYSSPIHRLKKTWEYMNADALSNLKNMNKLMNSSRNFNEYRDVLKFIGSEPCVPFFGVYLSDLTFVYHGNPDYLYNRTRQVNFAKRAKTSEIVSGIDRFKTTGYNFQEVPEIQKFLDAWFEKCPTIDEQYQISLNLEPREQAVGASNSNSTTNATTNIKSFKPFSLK

[2] = biological target: T1, catalytic region of CaCdc25 (REM-CAT …); assay: SAXS; small angle X-ray scattering in solution, P12 beamline (EMBL, DESY), profiles extrapolated to infinite dilution; oligomeric state and stoichiometry deduced from the estimated masses (Table S1); settings: both partners purified

B1: isolated G-domain of CaRas1 (1–166) (domain or fragment)
chain: MLREYKLVVVGGGGVGKSALTIQLIQSHFVDEYDPTIEDSYRKQCTIDDQQVLLDVLDTAGQEEYSAMREQYMRTGEGFLLVYSINSLNSFQELNSFYDQILRVKDSDNVPVLVVGNKCDLEMERQVSYEDGLALANSFNCPFLETSAKQRINVEEAFYGLVRNIN
notes: Ras-like protein 1 (CaRas1), Candida albicans, GTPase domain (G-domain), residues 1-166; Monomeric in solution by SAXS; also called CaRas1 G-domain
Kd [1]: 9 µM
stoichiometry N [2]: 1

B2: full-length Candida albicans Ras-like protein 1 (CaRas1-FL, 1–290) (natural protein)
chain: MLREYKLVVVGGGGVGKSALTIQLIQSHFVDEYDPTIEDSYRKQCTIDDQQVLLDVLDTAGQEEYSAMREQYMRTGEGFLLVYSINSLNSFQELNSFYDQILRVKDSDNVPVLVVGNKCDLEMERQVSYEDGLALANSFNCPFLETSAKQRINVEEAFYGLVRNINQYNAKIAEAEKQQQQQQQQQNANQQGQDQYGQQKDNQQSQFNNQINNNNNTSAVNGGVSSDGIIDQNGNGGVSSGQANLPNQSQSQSQRQQQQQQQEPQQQSENQFSGQKQSSSKSKNGCCVIV
notes: Ras-like protein 1 (CaRas1), Candida albicans, full-length protein, residues 1-290 (G-domain 1-166, hypervariable region 167-290); Monomeric in solution by SAXS; also called full-length CaRas1
Kd [1]: 9 µM
stoichiometry N [2]: 1
